This series deals with the molecule itself. The series is described as follows: SEC; analytical size exclusion chromatography, Superdex 200HR 5/150 GL, 20 µl of 10 mg/ml protein injected, 24°C, 50 mM Hepes pH 7.5, 0.25 M NaCl; column calibrated with protein standards.

B1: Enterococcus faecalis PTC lacking the C-terminal helix (helix 13), amino acids 1-317 (domain or fragment)
chain: not shown
notes: putrescine transcarbamylase, Enterococcus faecalis SD10 genomic DNA, gene ef0732, amino acids 1-317 followed by a stop codon (stop codon at position 318); Cloned in pNIC28-Bsa4; Most of the protein eluted as hexamers, a small fraction as monomers; also called truncated PTC; Trun; source: E. coli BL21 (DE3) co-transformed with pGroESL, purified (Ni-based chromatography)
Turning to B1, the stoichiometry N (as a rule, a count of units in the complex or per binding partner) was 6.

B2: putrescine transcarbamylase (PTC) from Enterococcus faecalis, wild type (enzyme)
chain: not shown
notes: putrescine transcarbamylase, Enterococcus faecalis, gene ef0732, UniProt Q837U7; the final PTC-PAPU model has residues 1 to 340 in each chain; also called wild-type PTC; WT
As for B2, the “stoichiometry N” value is 3.

For the origin of these results see PMC3282769, “New Insight into the Transcarbamylase Family: The Structure of Putrescine Transcarbamylase, a Key Catalyst for Fermentative Utilization of Agmatine” (PLoS ONE, 2012).
